Assay results: patent CN114409797A (HEFEN TIANKPORT IMMUNOLOGICAL DRUG CO LTD, dated 2022)

Target: PD-L1蛋白 (expressed on CHO-K1-PD-L1 cells) (Homo sapiens (Human), UniProt Q9NZQ7 19-290)
Experiment: flow cytometry on CHO-K1-PD-L1 cells, Alexa-647 anti-human Fc secondary antibody

Chain of PD-L1蛋白 (expressed on CHO-K1-PD-L1 cells) (Q9NZQ7 19-290 limits assumed): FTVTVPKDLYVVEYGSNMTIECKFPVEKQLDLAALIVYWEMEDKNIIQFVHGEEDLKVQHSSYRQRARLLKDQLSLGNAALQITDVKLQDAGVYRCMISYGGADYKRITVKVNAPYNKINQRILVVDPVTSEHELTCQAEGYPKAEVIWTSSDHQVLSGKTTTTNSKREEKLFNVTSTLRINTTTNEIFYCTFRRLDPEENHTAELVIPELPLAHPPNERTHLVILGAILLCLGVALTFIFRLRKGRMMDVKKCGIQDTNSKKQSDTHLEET

B1: CD3×PD1mut双特异抗体 (bispecific antibody)
chain 1: EVQLLESGGGLVQPGGSLKLSCAASGFTFNTYAMNWVRQAPGKGLEWVARIRSKYNNYATYYADSVKDRFTISRDDSKNTAYLQMNNLKTEDTAVYYCVRHGNFGNSYVSWFAYWGQGTLVTVSSGGGGSGGGGSGGGGSELVVTQEPSLTVSPGGTVTLTCRSSTGAVTTSNYANWVQQKPGQAPRGLIGGTNKRAPGTPARFSGSLLGGKAALTLSGVQPEDEAEYYCALWYSNLWVFGGGTKLTVLGGGGSPKSCDKTHTCPPCPAPELLGGPSVFLFPPKPKDTLMISRTPEVTCVVVAVSHEDPEVKFNWYVDGVEVHNAKTKPREEQYASTYRVVSVLTVLHQDWLNGKEYKCKVSNKALPAPIEKTISKAKGQPREPQVYTLPPSREEMTKNQVSLWCLVKGFYPSDIAVEWESNGQPENNYKTTPPVLDSDGSFFLYSKLTVDKSRWQQGNVFSCSVMHEALHNHYTQKSLSLSPGK
chain 2: not shown
notes: Two-chain knob-into-hole heterodimer with human IgG1 Fc
B1: binds.

B2: CD3×PD1双特异抗体 (bispecific antibody)
chain 1: EVQLLESGGGLVQPGGSLKLSCAASGFTFNTYAMNWVRQAPGKGLEWVARIRSKYNNYATYYADSVKDRFTISRDDSKNTAYLQMNNLKTEDTAVYYCVRHGNFGNSYVSWFAYWGQGTLVTVSSGGGGSGGGGSGGGGSELVVTQEPSLTVSPGGTVTLTCRSSTGAVTTSNYANWVQQKPGQAPRGLIGGTNKRAPGTPARFSGSLLGGKAALTLSGVQPEDEAEYYCALWYSNLWVFGGGTKLTVLGGGGSPKSCDKTHTCPPCPAPELLGGPSVFLFPPKPKDTLMISRTPEVTCVVVAVSHEDPEVKFNWYVDGVEVHNAKTKPREEQYASTYRVVSVLTVLHQDWLNGKEYKCKVSNKALPAPIEKTISKAKGQPREPQVYTLPPSREEMTKNQVSLWCLVKGFYPSDIAVEWESNGQPENNYKTTPPVLDSDGSFFLYSKLTVDKSRWQQGNVFSCSVMHEALHNHYTQKSLSLSPGK
chain 2: not shown
notes: as for B1
B2: binds.
